Data from PMC9798253 (Protein Science : A Publication of the Protein Society, 2023).

Test system: GST-TRD (TRD domain of MECP2)
Assay: GST-pulldown of MBP-ADD
Type: binding
Conditions: 1 μg each protein; 25 mM Tris/HCl pH 8, 200 mM KCl; 1 h, 6°C; SDS-PAGE

B1: D529A/D530A/D531A triple mutation: D529A/D530A/D531A triple mutant of the ADD domain (MBP‐ADD in pulldown, mVenus‐ADD in cells) (protein)
chain: RERLVYEVRQKCRNIEDICISCGSLNVTLEHPLFVGGMCQNCKNCFLECAYQYAAAGYQSYCTICCGGREVLMCGNNNCCRCFCVECVDLLVGPGAAQAAIKEDPWNCYMCGHKGTYGLLRRREDWPSRLQMFFANNHD
modifications: left off: MBP, N-terminal, kept
pulldown of MBP-ADD by GST-TRD: reduced
